{"source": "patent US20260242489A1", "about": "(HUAHUI HEALTH, published 2026)", "binders": {"B1": {"name": "14C07 (full-length human IgG1 form) (antibody, V domains shown)", "VH": "QVQLVQSGAEVKRPGSSVKVSCKASGGTFSSYAISWVRQAPGQGLEWMGGIIPIFGTANYAQKFQGRVTITADESTSTAYMELSSLRSEDTAVYYCARDSSSGWYDYFDYWGQGTLVTVSS", "VL": "QPVLTQPPSVSAAPGAMARITCESPDIGSKSVQWYQQRPGQAPILVIYYDDDRPSGIPERFSGSNSGNTAALTINWVEPEDEADYYCQAWDDSDPVVFGGGTQLTVLG"}}, "key": {"[1]": {"biological_target": "T1, hEGFR ECR-His6-Avi-Biotin (human, UniProt P00533 25-642, biotinylated on the Avi tag using BirA ligase)", "T1 construct": "also called WT hEGFR ECR; human EGFR ECD; not shown: His6-Avi tag", "assay": "ELISA: hEGFR ECR on plate, IgG1 titrated, anti-hFc-HRP; pH 6.5 [table]"}, "[2]": {"biological_target": "T1, hEGFR ECR-His6-Avi-Biotin", "assay": "ELISA: hEGFR ECR on plate, IgG1 titrated, anti-hFc-HRP; pH 7.4 [table]"}, "[3]": {"biological_target": "T2, mEGFR ECR (His6-Avi-tagged) (mouse, UniProt Q01279 25-644)", "T2 construct": "also called mouse EGFR; not shown: His6-Avi tag", "assay": "ELISA: mEGFR ECR on plate, IgG1 titrated, anti-hFc-HRP; EC50 at pH 7.4 over EC50 at pH 6.5 [table]"}, "[4]": {"biological_target": "T3, hEGFR ECR H370A (human, UniProt P00533 25-642)", "assay": "IgG1 ELISA, pH 6.5 and pH 7.4 (EC50 ratio pH 7.4/pH 6.5)"}, "[5]": {"biological_target": "hEGFR ECR H433A (human, UniProt P00533 25-642)", "assay": "ELISA: hEGFR ECR H433A on plate, IgG1 titrated, anti-hFc-HRP; pH 6.5 and pH 7.4"}, "[6]": {"biological_target": "T2, mEGFR ECR (His6-Avi-tagged)", "assay": "ELISA: mEGFR ECR on plate, IgG1 titrated, anti-hFc-HRP; pH 6.5 [table]"}, "[7]": {"biological_target": "T1, hEGFR ECR-His6-Avi-Biotin", "assay": "ELISA: WT hEGFR ECR on plate, IgG1 titrated, anti-hFc-HRP; pH 7.4 [table]"}, "[8]": {"biological_target": "T1, hEGFR ECR-His6-Avi-Biotin", "assay": "ELISA: WT hEGFR ECR on plate, IgG1 titrated, anti-hFc-HRP; pH 6.5 [table]"}, "[9]": {"biological_target": "T3, hEGFR ECR H370A", "assay": "ELISA: hEGFR ECR H370A on plate, IgG1 titrated, anti-hFc-HRP; EC50 at pH 7.4 over EC50 at pH 6.5 [table]"}, "[10]": {"biological_target": "T3, hEGFR ECR H370A", "assay": "ELISA: hEGFR ECR H370A on plate, IgG1 titrated, anti-hFc-HRP; pH 6.5 [table]"}, "[11]": {"biological_target": "T1, hEGFR ECR-His6-Avi-Biotin", "assay": "ELISA: hEGFR ECR on plate, IgG1 titrated, anti-hFc-HRP; pH 6.0 [left panel]"}, "[12]": {"biological_target": "T1, hEGFR ECR-His6-Avi-Biotin", "assay": "ELISA: hEGFR ECR on plate, IgG1 titrated, anti-hFc-HRP; EC50 at pH 7.4 over EC50 at pH 6.5 [table]"}, "[13]": {"biological_target": "T1, hEGFR ECR-His6-Avi-Biotin", "assay": "ELISA: WT hEGFR ECR on plate, IgG1 titrated, anti-hFc-HRP; EC50 at pH 7.4 over EC50 at pH 6.5 [table]"}, "[14]": {"biological_target": "T1, hEGFR ECR-His6-Avi-Biotin", "assay": "ELISA: hEGFR ECR on plate, IgG1 titrated, anti-hFc-HRP; pH 7.4 [left panel]"}, "[15]": {"biological_target": "T3, hEGFR ECR H370A", "assay": "ELISA: hEGFR ECR H370A on plate, IgG1 titrated, anti-hFc-HRP; pH 7.4 [table]"}, "[16]": {"biological_target": "T2, mEGFR ECR (His6-Avi-tagged)", "assay": "ELISA: mEGFR ECR on plate, IgG1 titrated, anti-hFc-HRP; pH 7.4 [table]"}, "[17]": {"biological_target": "T1, hEGFR ECR-His6-Avi-Biotin", "assay": "competition ELISA: hEGFR ECR on plate, IgG1 titrated in a mixture with EGF-mFc, bound EGF-mFc detected with anti-mFc-HRP; pH 6.0 [left panel]"}, "[18]": {"biological_target": "T2, mEGFR ECR (His6-Avi-tagged)", "assay": "IgG1 ELISA at pH 6.5, mEGFR ECR against hEGFR ECR"}}, "data": [{"binder": "B1", "values": [{"measurement": "EC50", "setting": "[1]", "value": 0.048, "unit": "nM"}, {"measurement": "EC50", "setting": "[2]", "value": 0.155, "unit": "nM"}, {"measurement": "EC50 ratio (pH 7.4/pH 6.5)", "setting": "[3]", "value": 6.52}, {"measurement": "fold weaker pH-dependency of binding than with WT EGFR ECR", "setting": "[4]", "value": "> 2", "unit": "fold"}, {"measurement": "binding result", "setting": "[5]", "value": "no binding (tested: 100 nM (Log[Ab] 2))"}, {"measurement": "EC50", "setting": "[6]", "value": 0.419, "unit": "nM"}, {"measurement": "EC50", "setting": "[7]", "value": 0.818, "unit": "nM"}, {"measurement": "EC50", "setting": "[8]", "value": 0.301, "unit": "nM"}, {"measurement": "EC50 ratio (pH 7.4/pH 6.5)", "setting": "[9]", "value": 1.07}, {"measurement": "EC50", "setting": "[10]", "value": 0.433, "unit": "nM"}, {"measurement": "EC50", "setting": "[11]", "value": 0.02, "unit": "nM"}, {"measurement": "EC50 ratio (pH 7.4/pH 6.5)", "setting": "[12]", "value": 3.23}, {"measurement": "EC50 ratio (pH 7.4/pH 6.5)", "setting": "[13]", "value": 2.72}, {"measurement": "EC50", "setting": "[14]", "value": 0.662, "unit": "nM"}, {"measurement": "EC50", "setting": "[15]", "value": 0.462, "unit": "nM"}, {"measurement": "EC50", "setting": "[16]", "value": 2.73, "unit": "nM"}, {"measurement": "IC50", "setting": "[17]", "value": 29, "unit": "nM"}, {"measurement": "EC50 ratio, mEGFR/hEGFR (pH 6.5)", "setting": "[18]", "value": 8.73}]}]}
